In US20240084031A1 (Seagen, published 2024):
Substitutions are numbered along the chain they refer to. Names and notes keep the numbering of the source.

What was measured:
[1] = target: T1, human CD70 on CD70 positive cell lines (human, UniProt P32970 1-193); assay: cell-based or functional assay
T1 sequence (looked up): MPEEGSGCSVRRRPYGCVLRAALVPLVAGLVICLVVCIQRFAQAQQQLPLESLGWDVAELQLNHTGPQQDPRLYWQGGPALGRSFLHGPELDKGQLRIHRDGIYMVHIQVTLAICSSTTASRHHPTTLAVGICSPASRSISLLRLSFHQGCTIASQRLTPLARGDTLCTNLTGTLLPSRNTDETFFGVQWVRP

[2] = target: T1, human CD70 on CD70 positive cell lines; assay: saturation binding of europium-labelled antibody to CD70+ 786-O cells (apparent KD)
Excerpt: (§1) Humanized 1F6 antibody derivatives HDLA (hVHD and hVLA), HHLA (hVHH and hVLA), and HJLA (hVHJ and hVLA), and c1F6 were transiently expressed in 293 cells, labeled with europium using the Eu-N1 iodoacetamido chelate (Perkin Elmer), and analyzed for saturation binding to a panel of CD70 positive cell lines as described in detail in U.S. Patent Application No. 60/673,070, filed Apr. 19, 2005; and PCT International Publication No. WO 2006/113909.

[3] = target: T1, human CD70 on CD70 positive cell lines; assay: saturation binding of europium-labelled antibody to CD70+ Caki-1 cells (apparent KD)
Excerpt: as §1

[4] = target: T1, human CD70 on CD70 positive cell lines; assay: saturation binding of europium-labelled antibody to CD70+ ACHN cells (apparent KD)
Excerpt: as §1

[5] = target: T1, human CD70 on CD70 positive cell lines; assay: saturation binding of europium-labelled antibody to CD70+ Caki-2 cells (apparent KD)
Excerpt: as §1

[6] = target: T2, human FcγRI, full length on stably transfected CHO cells (human, UniProt P12314 16-374); assay: cell-based competition binding, flow cytometry (LSRII): serial dilutions of unlabelled competitor against 50 nM Alexa Fluor 488-labelled h1F6 IgG1 on CHO cells expressing human FcγRI
T2 construct: whole, on cells; also called CD64; Fcγ receptor I
T2 sequence (P12314 16-374): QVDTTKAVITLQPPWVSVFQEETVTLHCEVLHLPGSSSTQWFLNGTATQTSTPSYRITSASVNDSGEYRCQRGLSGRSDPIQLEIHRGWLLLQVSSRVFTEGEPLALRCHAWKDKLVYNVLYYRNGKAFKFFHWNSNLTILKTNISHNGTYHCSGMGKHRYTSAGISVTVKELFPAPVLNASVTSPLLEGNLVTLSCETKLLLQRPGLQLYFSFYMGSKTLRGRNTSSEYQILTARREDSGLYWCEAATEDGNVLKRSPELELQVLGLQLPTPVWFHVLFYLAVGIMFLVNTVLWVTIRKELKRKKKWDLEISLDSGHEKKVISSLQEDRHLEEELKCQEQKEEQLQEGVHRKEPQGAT
Procedure: (§2) Labeled cells were detected using an LSRII FACS analyzer.
(§3) Binding of humanized anti-CD70 (h1F6) antibody to CHO cells expressing full-length FcγRI was determined by competition binding. […] Labeled cells were detected using an LSRII FACS analyzer.

[7] = target: T3, human FcγRIIIa, 158V (high affinity), full length on stably transfected CHO cells (human, UniProt P08637 17-254); assay: cell-based competition binding, flow cytometry (LSRII): serial dilutions of unlabelled competitor against 100 nM Alexa Fluor 488-labelled h1F6 IgG1 on CHO cells expressing human FcγRIIIa 158V
T3 construct: whole, on cells; CHO DG44 line '158V'; also called CD16
T3 sequence (P08637 17-254 F176V): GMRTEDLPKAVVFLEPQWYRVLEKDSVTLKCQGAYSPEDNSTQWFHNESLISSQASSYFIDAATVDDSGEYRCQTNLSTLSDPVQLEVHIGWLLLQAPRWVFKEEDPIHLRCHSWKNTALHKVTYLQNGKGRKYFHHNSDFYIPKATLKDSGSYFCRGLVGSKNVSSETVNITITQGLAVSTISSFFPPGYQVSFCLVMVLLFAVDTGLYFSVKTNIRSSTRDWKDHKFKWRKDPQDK
Procedure: as §2
(§4) Binding of variant humanized anti-CD70 (h1F6) antibodies to CHO cells expressing full-length FcγRIIIa was also determined by competition binding. […] Labeled cells were detected using an LSRII FACS analyzer.

[8] = target: T1, human CD70 on CD70 positive cell lines; assay: 786-O cell binding; IC50 of the vcF2 conjugate over IC50 of the unconjugated IgG
[9] = target: T3, human FcγRIIIa, 158V (high affinity), …; assay: cell-based competition binding on CHO cells expressing full-length FcγRIIIa, 'performed as described previously' (158V line, 100 nM Alexa Fluor 488-labelled h1F6 IgG1); the sheet says only FcγRIIIA
Procedure: as §4
(§5) Binding of one of the variants, IgG1 S239C, to CHO cells expressing full-length FcγRIIIa and FcγRI was determined as described above. […] The control, parent antibody h1F6, binds to FcγRIIIa-expressing cells and FcγRI-expressing cells.

[10] = target: T2, human FcγRI, full length on stably …; assay: cell-based competition binding on CHO cells expressing full-length FcγRI, 'performed as described previously' (50 nM Alexa Fluor 488-labelled h1F6 IgG1)
Procedure: as §3, §5

[11] = target: T1, human CD70 on CD70 positive cell lines; assay: 786-O cell binding, apparent KD of the IgG

B1: c1F6(293)-F8 (c1F6 conjugated to vcMMAF, eight drug units per antibody) (antibody, V domains shown)
VH: QIQLVQSGPEVKKPGETVKISCKASGYTFTNYGMNWVKQAPGKGLKWMGWINTYTGEPTYADAFKGRFAFSLETSASTAYLQINNLKNEDTATYFCARDYGDYGMDYWGQGTSVTVSS
VL: DIVLTQSPASLAVSLGQRATISCRASKSVSTSGYSFMHWYQQKPGQPPKLLIYLASNLESGVPARFSGSGSGTDFTLNIHPVEEEDAATYYCQHSREVPWTFGGGTKLEIKR
modifications: vcMMAF conjugated, loading level of eight drug units per antibody; attachment residues not stated
B1 was tested. Which “cytotoxicity IC50 (mean, n = 3), 786-O cells” value [1] did it give?
The value was 1.45 ng/mL.

What about the “cytotoxicity IC50 (mean, n = 3), Caki-1 cells” value [1] of the same binder?
Its value is 2.17 ng/mL.

And the “cytotoxicity IC50, 786-O cells” value [1]?
The value was 2.4 ng/mL.

What about the “cytotoxicity IC50, Caki-1 cells” value [1] of the same binder?
Its value is 1.8 ng/mL.

B2: c1F6 (chimeric derivative of the anti-CD70 murine monoclonal antibody 1F6) (antibody, V domains shown)
VH: B1 VH
VL: B1 VL
notes: also called chimeric 1F6
For B2, which Kd [2] is on record?
Its Kd is 560 pM.

And the Kd [3]?
The Kd was 1280 pM.

And the Kd [4]?
Its Kd is 300 pM.

What about the Kd [5] of the same binder?
Its Kd is 260 pM.

B3: h1F6 HMLA-F8 (humanized 1F6 derivative HMLA, hVHM and hVLA, conjugated to vcMMAF, eight drug units per antibody) (antibody, human IgG1, kappa, V domains shown)
VH: QVQLVQSGAEVKKPGASVKVSCKASGYTFTNYGMNWVRQAPGQGLKWMGWINTYTGEPTYADAFKGRFAFSLDTSTSTAYMELRSLRSDDTAVYYCARDYGDYGMDYWGQGTTVTVSS
VL: DIVMTQSPDSLAVSLGERATINCRASKSVSTSGYSFMHWYQQKPGQPPKLLIYLASNLESGVPDRFSGSGSGTDFTLTISSLQAEDVAVYYCQHSREVPWTFGQGTKVEIKR
modifications: vcMMAF conjugated, loading level of eight drug units per antibody; attachment residues not stated
For B3, which “cytotoxicity IC50 (mean, n = 3), 786-O cells” value [1] is on record?
The value was 2.03 ng/mL.

And the “cytotoxicity IC50 (mean, n = 3), Caki-1 cells” value [1]?
The value was 2.07 ng/mL.

And the “cytotoxicity IC50, 786-O cells” value [1]?
Its value is 2.8 ng/mL.

And the “cytotoxicity IC50, Caki-1 cells” value [1]?
The value was 1.8 ng/mL.

B4: humanized 1F6 antibody derivative HDLA (hVHD and hVLA) (antibody, human IgG1, kappa, V domains shown)
VH: B3 VH with K46E, F68V, A69T, F70M, S71T, L72T
VL: B3 VL
notes: Heavy chain is hVH-D + hIgG1 constant domain; also called h1F6 HDLA
For B4, which Kd [2] is on record?
The Kd was 550 pM.

And the Kd [3]?
Its Kd is 1290 pM.

And the Kd [4]?
Its Kd is 1440 pM.

What about the Kd [5] of the same binder?
The Kd was 860 pM.

B5: h1F6 HELA-F8 (humanized 1F6 derivative HELA, hVHE and hVLA, conjugated to vcMMAF, eight drug units per antibody) (antibody, human IgG1, kappa, V domains shown)
VH: B3 VH with K46E, F68V, A69T, F70M, S71T, L72R, T76I, R84S, S85R
VL: B3 VL
modifications: vcMMAF conjugated, loading level of eight drug units per antibody; attachment residues not stated
For B5, which “cytotoxicity IC50 (mean, n = 3), 786-O cells” value [1] is on record?
Its value is 3.9 ng/mL.

What about the “cytotoxicity IC50 (mean, n = 3), Caki-1 cells” value [1] of the same binder?
The value was 2.87 ng/mL.

What about the “cytotoxicity IC50, 786-O cells” value [1] of the same binder?
Its value is 5.2 ng/mL.

And the “cytotoxicity IC50, Caki-1 cells” value [1]?
The value was 3.4 ng/mL.

B6: h1F6 HHLA-F8 (HHLA conjugated to vcMMAF, eight drug units per antibody) (antibody, human IgG1, kappa, V domains shown)
VH: B3 VH with K46E, M81L, E82Q, L83I, R84N
VL: B3 VL
modifications: vcMMAF conjugated, loading level of eight drug units per antibody; attachment residues not stated
Which “cytotoxicity IC50 (mean, n = 3), 786-O cells” value [1] does the source give for B6 here?
Its value is 1.93 ng/mL.

What about the “cytotoxicity IC50 (mean, n = 3), Caki-1 cells” value [1] of the same binder?
Its value is 1.87 ng/mL.

What about the “cytotoxicity IC50, 786-O cells” value [1] of the same binder?
The value was 2.3 ng/mL.

What about the “cytotoxicity IC50, Caki-1 cells” value [1] of the same binder?
Its value is 1.4 ng/mL.

B7: humanized 1F6 antibody derivative HHLA (hVHH and hVLA) (antibody, V domains shown)
VH: B3 VH with K46E, M81L, E82Q, L83I, R84N
VL: B3 VL
notes: Heavy chain is hVH-H + hIgG1 constant domain; also called h1F6 HHLA
For B7, which Kd [2] is on record?
The Kd was 280 pM.

What about the Kd [3] of the same binder?
Its Kd is 1220 pM.

What about the Kd [4] of the same binder?
Its Kd is 290 pM.

And the Kd [5]?
Its Kd is 150 pM.

B8: h1F6 HJLA-F8 (HJLA conjugated to vcMMAF, eight drug units per antibody) (antibody, human IgG1, kappa)
heavy: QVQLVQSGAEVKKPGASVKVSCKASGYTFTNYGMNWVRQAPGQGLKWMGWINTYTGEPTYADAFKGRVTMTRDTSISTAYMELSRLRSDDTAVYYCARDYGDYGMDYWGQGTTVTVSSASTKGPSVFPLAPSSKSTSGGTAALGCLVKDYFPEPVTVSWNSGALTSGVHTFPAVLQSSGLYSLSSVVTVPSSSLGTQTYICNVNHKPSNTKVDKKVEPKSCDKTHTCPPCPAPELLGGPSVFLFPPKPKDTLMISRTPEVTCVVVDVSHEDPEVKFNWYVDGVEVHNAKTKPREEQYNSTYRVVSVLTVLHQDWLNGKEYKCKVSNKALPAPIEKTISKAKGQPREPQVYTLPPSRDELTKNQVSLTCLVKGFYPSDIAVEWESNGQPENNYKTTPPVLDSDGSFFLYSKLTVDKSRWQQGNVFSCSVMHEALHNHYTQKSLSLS
light: DIVMTQSPDSLAVSLGERATINCRASKSVSTSGYSFMHWYQQKPGQPPKLLIYLASNLESGVPDRFSGSGSGTDFTLTISSLQAEDVAVYYCQHSREVPWTFGQGTKVEIKRTVAAPSVFIFPPSDEQLKSGTASVVCLLNNFYPREAKVQWKVDNALQSGNSQESVTEQDSKDSTYSLSSTLTLSKADYEKHKVYACEVTHQGLSSPVTKSFNRGEC
modifications: vcMMAF conjugated, loading level of eight drug units per antibody; attachment residues not stated
Which results are given for B8?
cytotoxicity IC50 (mean, n = 3), 786-O cells [1]: 3.03 ng/mL; cytotoxicity IC50 (mean, n = 3), Caki-1 cells [1]: 2.3 ng/mL; cytotoxicity IC50, 786-O cells [1]: 3.4 ng/mL; cytotoxicity IC50, Caki-1 cells [1]: 2.2 ng/mL

B9: h1F6 IgG4 vcMMAF(4) antibody drug conjugate (antibody)
heavy: not shown
light: B8 light
modifications: vcMMAF conjugated, mean loading of 4 drugs/antibody; attachment residues not stated
notes: also called h1F6 G4-vcMMAF(4); IgG4-F4
For B9, which “IC50 (read off the curve)” value [6] is on record?
The value was about 10000 pM.

B10: h1F6 IgG4 (IgG4 isotype variant of h1F6 HJLA) (antibody)
heavy: not shown
light: B8 light
notes: also called h1F6 G4
With B10 as the binder, how does the “IC50 (read off the curve)” value [6] read?
The value was about 30000 pM.

B11: h1F6 IgG1 vcMMAF(4) antibody drug conjugate (antibody)
heavy: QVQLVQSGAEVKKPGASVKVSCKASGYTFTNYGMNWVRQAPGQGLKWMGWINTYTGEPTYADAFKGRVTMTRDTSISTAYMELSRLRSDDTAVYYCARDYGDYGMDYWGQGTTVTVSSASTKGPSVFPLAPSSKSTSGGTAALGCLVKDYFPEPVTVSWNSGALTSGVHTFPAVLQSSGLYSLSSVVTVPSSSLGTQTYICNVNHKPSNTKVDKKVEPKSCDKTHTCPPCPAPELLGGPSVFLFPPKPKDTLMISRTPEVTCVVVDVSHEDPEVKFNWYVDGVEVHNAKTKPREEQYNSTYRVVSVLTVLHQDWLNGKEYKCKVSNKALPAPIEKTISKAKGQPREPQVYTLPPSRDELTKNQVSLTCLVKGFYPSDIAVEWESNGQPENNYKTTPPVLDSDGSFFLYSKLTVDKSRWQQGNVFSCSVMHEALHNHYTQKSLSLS
light: B8 light
modifications: vcMMAF conjugated, mean loading of 4 drugs/antibody; attachment residues not stated
notes: also called h1F6 G1-vcMMAF(4); IgG1-F4
Does B11 bind [6]?
Result: binds

Does B11 bind [7]?
Result: binds

B12: h1F6 IgG1-vcF2 (conjugate of h1F6 IgG1 in Table 8) (antibody)
heavy: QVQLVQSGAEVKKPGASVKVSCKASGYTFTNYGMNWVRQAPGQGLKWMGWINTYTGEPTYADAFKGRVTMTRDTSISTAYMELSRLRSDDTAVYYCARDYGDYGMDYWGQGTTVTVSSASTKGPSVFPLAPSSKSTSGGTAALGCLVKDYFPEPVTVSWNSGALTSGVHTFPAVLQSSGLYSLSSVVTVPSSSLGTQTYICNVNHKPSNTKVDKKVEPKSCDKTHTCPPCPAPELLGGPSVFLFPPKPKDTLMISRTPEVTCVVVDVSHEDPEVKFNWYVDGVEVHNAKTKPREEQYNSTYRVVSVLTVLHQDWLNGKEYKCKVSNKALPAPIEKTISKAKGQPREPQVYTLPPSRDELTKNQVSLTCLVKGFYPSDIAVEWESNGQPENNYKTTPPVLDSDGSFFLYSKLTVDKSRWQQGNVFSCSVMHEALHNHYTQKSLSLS
light: B8 light
modifications: vcF2 as printed (taken as vcMMAF, 2 drugs/antibody); attachment residues not stated
notes: Its preparation is not described; also called IgG1 IgG-vcF2
With B12 as the binder, how does the “IC50 IgG-vcF2 / IC50 IgG” value [8] read?
Its value is 1.3 ratio.

B13: h1F6 IgG1 S239C conjugated to vcMMAF (average of 2 drugs/antibody) (antibody)
heavy: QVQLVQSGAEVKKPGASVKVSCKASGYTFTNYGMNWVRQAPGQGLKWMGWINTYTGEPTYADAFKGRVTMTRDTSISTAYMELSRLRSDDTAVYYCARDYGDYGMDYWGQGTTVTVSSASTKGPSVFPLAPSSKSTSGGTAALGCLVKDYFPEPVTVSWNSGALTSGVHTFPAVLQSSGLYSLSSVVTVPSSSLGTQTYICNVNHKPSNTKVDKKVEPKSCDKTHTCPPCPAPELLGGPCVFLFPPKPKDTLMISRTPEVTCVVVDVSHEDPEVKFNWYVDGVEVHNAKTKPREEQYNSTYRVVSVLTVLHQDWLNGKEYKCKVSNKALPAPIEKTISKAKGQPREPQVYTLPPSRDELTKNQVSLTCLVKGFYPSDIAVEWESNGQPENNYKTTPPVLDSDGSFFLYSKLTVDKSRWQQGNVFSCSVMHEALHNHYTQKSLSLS
light: B8 light
modifications: vcMMAF conjugated, average of 2 drugs/antibody; attachment residues not stated for the material tested
notes: also called IgG1 S239C vcMMAF; IgG1 S239C IgG-vcF2
How did the “IC50 IgG-vcF2 / IC50 IgG” value [8] turn out when B13 was run?
Its value is 1.1 ratio.

Does B13 bind [9]?
Result: binds

What about the “IC50 (read off the curve)” value [10] of the same binder?
Its value is about 8000 pM.

B14: h1F6 IgG1 D265C-vcF2 (conjugate in Table 8) (antibody)
heavy: not shown
light: B8 light
modifications: vcF2 as printed (taken as vcMMAF, 2 drugs/antibody); attachment residues not stated
notes: Position 265 is Fc (EU) numbering; also called IgG1 D265C IgG-vcF2
For B14, which “IC50 IgG-vcF2 / IC50 IgG” value [8] is on record?
The value was 0.9 ratio.

B15: h1F6 IgG1 D265C (antibody)
heavy: not shown
light: B8 light
B15 was tested. Which Kd [11] did it give?
Its Kd is 1100 pM.

B16: h1F6 IgG1 A327C (antibody)
heavy: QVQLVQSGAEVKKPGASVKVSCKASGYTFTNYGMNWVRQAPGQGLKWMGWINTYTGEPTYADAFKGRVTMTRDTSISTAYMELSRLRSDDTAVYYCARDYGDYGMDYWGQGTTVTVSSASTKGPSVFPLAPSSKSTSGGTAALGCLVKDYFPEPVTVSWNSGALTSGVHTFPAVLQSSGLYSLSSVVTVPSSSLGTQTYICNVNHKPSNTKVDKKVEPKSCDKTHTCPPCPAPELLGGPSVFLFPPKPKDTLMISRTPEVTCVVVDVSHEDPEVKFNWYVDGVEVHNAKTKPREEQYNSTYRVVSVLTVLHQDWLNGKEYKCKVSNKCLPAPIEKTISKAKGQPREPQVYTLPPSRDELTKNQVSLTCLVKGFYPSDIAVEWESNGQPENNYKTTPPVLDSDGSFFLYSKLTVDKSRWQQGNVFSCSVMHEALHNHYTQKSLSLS
light: B8 light
Which Kd [11] does the source give for B16 here?
The Kd was 500 pM.

B17: h1F6 IgG1 S239C (antibody)
heavy: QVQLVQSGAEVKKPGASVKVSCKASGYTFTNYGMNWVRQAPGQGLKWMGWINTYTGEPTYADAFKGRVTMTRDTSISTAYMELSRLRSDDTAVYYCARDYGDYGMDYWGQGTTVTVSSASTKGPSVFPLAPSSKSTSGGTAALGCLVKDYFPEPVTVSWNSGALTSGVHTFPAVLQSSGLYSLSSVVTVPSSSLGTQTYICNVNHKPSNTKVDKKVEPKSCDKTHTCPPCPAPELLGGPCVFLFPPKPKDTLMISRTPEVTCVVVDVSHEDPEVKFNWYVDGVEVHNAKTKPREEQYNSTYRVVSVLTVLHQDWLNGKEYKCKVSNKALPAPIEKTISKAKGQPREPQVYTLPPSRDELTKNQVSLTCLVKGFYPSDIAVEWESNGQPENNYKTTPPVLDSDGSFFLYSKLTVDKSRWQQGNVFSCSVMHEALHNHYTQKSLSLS
light: B8 light
B17 was tested. Which Kd [11] did it give?
The Kd was 1000 pM.

Does B17 bind [9]?
Result: binds

And the “IC50 (read off the curve)” value [10]?
The value was about 10000 pM.

B18: h1F6 IgG1 E269C-vcF2 (conjugate in Table 8) (antibody)
heavy: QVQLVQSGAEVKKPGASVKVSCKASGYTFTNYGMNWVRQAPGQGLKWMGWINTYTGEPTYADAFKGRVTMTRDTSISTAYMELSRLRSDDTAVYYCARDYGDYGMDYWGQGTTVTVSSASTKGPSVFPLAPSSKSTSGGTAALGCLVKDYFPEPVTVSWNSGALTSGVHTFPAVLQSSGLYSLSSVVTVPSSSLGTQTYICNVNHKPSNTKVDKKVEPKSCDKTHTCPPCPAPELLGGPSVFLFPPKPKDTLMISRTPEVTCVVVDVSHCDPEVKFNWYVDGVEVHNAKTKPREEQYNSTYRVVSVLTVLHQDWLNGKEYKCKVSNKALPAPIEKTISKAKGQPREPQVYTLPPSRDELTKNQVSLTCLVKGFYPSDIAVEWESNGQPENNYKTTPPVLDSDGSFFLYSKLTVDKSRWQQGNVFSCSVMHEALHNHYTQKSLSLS
light: B8 light
modifications: vcF2 as printed (taken as vcMMAF, 2 drugs/antibody); attachment residues not stated
notes: Position 269 is Fc (EU) numbering; also called IgG1 E269C IgG-vcF2
With B18 as the binder, how does the “IC50 IgG-vcF2 / IC50 IgG” value [8] read?
Its value is 0.9 ratio.

B19: h1F6 IgG1 A327C-vcF2 (conjugate in Table 8) (antibody)
heavy: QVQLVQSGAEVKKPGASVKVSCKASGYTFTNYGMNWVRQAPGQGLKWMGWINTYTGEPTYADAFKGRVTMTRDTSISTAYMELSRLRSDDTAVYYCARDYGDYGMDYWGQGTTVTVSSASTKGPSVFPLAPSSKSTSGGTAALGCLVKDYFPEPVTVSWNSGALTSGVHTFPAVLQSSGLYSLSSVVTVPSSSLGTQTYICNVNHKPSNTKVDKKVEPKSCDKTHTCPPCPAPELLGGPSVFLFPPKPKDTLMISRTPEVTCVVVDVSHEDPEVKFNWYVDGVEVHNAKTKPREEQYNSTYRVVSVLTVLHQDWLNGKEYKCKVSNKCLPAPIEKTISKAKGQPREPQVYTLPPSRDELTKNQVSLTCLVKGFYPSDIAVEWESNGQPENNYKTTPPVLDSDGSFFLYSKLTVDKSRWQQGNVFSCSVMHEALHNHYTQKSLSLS
light: B8 light
modifications: vcF2 as printed (taken as vcMMAF, 2 drugs/antibody); attachment residues not stated
notes: Position 327 is Fc (EU) numbering; also called IgG1 A327C IgG-vcF2
For B19, which “IC50 IgG-vcF2 / IC50 IgG” value [8] is on record?
The value was 1.1 ratio.

B20: h1F6 IgG1 E269C (antibody)
heavy: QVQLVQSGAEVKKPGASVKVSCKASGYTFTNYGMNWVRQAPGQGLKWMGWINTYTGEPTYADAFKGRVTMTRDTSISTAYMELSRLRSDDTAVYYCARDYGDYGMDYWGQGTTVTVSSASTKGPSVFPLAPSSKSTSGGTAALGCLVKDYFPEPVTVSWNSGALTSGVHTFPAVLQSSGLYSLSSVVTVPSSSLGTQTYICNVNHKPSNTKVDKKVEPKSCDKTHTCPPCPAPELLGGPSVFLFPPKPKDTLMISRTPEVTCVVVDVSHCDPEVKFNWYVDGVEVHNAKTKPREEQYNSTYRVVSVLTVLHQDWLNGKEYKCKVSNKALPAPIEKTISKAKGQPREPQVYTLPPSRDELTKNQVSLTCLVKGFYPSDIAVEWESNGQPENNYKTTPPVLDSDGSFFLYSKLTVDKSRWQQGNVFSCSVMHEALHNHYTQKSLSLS
light: B8 light
For B20, which Kd [11] is on record?
The Kd was 800 pM.
